Results on ten molecules are retold here after patent publication US20160264674A1 (ADURO BIOTECH HOLDINGS EUROPE B V, published 2016).

For assay [1], the target named is T1, FLAG-tagged human APRIL (human, UniProt O75888 105-250, limits assumed).
T1 construct: also called FLAG-tagged APRIL; FLAG-APRIL; not shown: FLAG tag
T1 sequence (looked up): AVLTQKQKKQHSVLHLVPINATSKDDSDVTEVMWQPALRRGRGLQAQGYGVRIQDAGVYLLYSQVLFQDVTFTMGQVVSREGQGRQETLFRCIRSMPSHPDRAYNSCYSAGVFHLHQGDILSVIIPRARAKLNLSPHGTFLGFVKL
Kind of assay: FLAG-APRIL ELISA after 10 min at 70 °C, antibody at 3.16 µg/ml. (In an ELISA, binding on a coated surface is turned into a signal by an enzyme label.)

Assay [2] has as its target T1, FLAG-tagged human APRIL. Kind of assay: FLAG-APRIL ELISA after 10 min at 70 °C, antibody at 1 µg/ml.
In assay [3] the target is T1, FLAG-tagged human APRIL. Kind of assay: FLAG-APRIL ELISA after 10 min at 65 °C, antibody at 1 µg/ml. How it is done: (§1) The plasmids encoding the VH and VL constructs were mixed in a 1:3 ratio (4 μg in total) and transiently expressed by transfection into HEK293T human embryonic kidney cells (HEK293T/17, ATCC-CRL-11268), using Lipofectamine 2000 transfection reagent (Invitrogen) following the manufacturer's instructions. Cell supernatants were harvested after 5 days and tested for expression of antibody and binding to APRIL using an enzyme-linked immuno assay (ELISA). In these ELISAs, all incubation steps were followed by a wash step with PBST (PBS with 0.01% Tween 20). Maxisorb 96-wells plates (Nunc) were coated with 0.5 μg/ml anti-FLAG (Sigma) or anti-IgG4 (Jackson laboratories) and incubated overnight at 4° C. Subsequently the anti-FLAG coated 96-wells plates were incubated with FLAG-tagged human APRIL for 1 hour at room temperature. Next, supernatants and dilutions thereof were incubated for 1 hour, which was followed by an incubation of 1 hour with mouse anti-human IgG HRP-conjugate (Southern Biotechnology).
(§2) To determine the effect of humanization on the stability of the antibodies, humanized antibodies were exposed to a range of temperatures for 10 minutes. Purified antibodies were diluted to 3.16 μg/ml and dilutions thereof in PBS. Next, these solutions were exposed to 65° C. or 70° C. and residual binding after heat treatment of the antibodies was measured using the FLAG-tagged APRIL ELISA assay as described before (see Table 6).
(§3) In addition, the stability of the substituted humanized antibodies was improved as determined using thermostability studies as described in Example 3 (see Table 9).

Assay [4] concerns the target T1, FLAG-tagged human APRIL. Kind of assay: FLAG-APRIL ELISA after 10 min at 65 °C, antibody at 0.316 µg/ml. How it is done: as §1, §2, §3
Assay [5] deals with T1, FLAG-tagged human APRIL. Kind of assay: ELISA: FLAG-tagged human APRIL captured on anti-FLAG plate, purified antibody titrated.
Assay [6] addresses T1, FLAG-tagged human APRIL. Kind of assay: FLAG-APRIL ELISA after 10 min at 65 °C, antibody at 3.16 µg/ml. Here is the method:
as §1, §2, §3

The target of assay [7] is T1, FLAG-tagged human APRIL. Kind of assay: FLAG-APRIL ELISA after 10 min at 70 °C, antibody at 0.316 µg/ml.
Assay [8] deals with T1, FLAG-tagged human APRIL. Kind of assay: competition ELISA: antibody premixed with FLAG-tagged APRIL, added to coated Fc-BCMA, anti-FLAG HRP. How it is done:
A subset of humanized antibodies described above was selected for further analyses. Again, plasmids encoding the VH and VL constructs were mixed in a 1:3 ratio (32 μg) and transiently expressed by transfection into (8*10⁶) HEK293T human embryonic kidney cells (HEK293T), using Lipofectamine 2000 transfection reagent (Invitrogen) according to the manufacturer's instructions. Supernatants were harvested (10 ml) and antibodies were purified using MabSelect Sure Protein A resin according to the manufacturer's instructions (GE Healthcare). Buffer was exchanged for PBS using Zeba desalting columns (Thermo Scientific). The concentration of purified antibodies was determined based on OD280 (Nanodrop ND-1000). The binding of the purified antibodies to APRIL was established using the above described APRIL ELISA. The blocking capability of the humanized antibodies with BCMA and TACI receptors, was tested in a competition ELISA. In these ELISAs, all incubation steps were followed by a wash step with PBST (PBS with 0.01% Tween 20). Maxisorb 96-wells plates (Nunc) were coated with 0.5 μg/ml Fc-BCMA (R&D Systems) or Fc-TACI (R&D Systems) and incubated overnight at 4° C. Next, humanized antibodies and dilutions thereof were incubated, premixed with FLAG-tagged APRIL, for 1 hour, which was followed by an incubation of 1 hour with anti-FLAG HRP-conjugate (Sigma). Immunoreactivity was visualized with 100 μl TMB Stabilized Chromagen (Invitrogen). Reactions were stopped with 100 μl 0.5 M H2504 and absorbances were measured at 450 and 620 nm. Calculated EC₅₀ and IC₅₀ representing the concentration at which 50% of the total binding signal or blocking is observed are represented in Table 5.
The antibodies were tested for binding, blockade, and stability as described before.

The target in assay [9] is T1, FLAG-tagged human APRIL. Kind of assay: ELISA on FLAG-tagged human APRIL captured by anti-FLAG. Here is the method:
as §1
Immunoreactivity was visualized with 100 μl TMB Stabilized Chromagen (Invitrogen). Reactions were stopped with 100 μl 0.5 M H2504 and absorbances were measured at 450 and 620 nm.

What is called EC50 is the concentration that produces a half-maximal response. The low end stands for greater potency, the high end for weaker potency. In general, IC50 refers to the concentration that gives 50% inhibition. The low end stands for inhibition by little substance, the high end for a need for much substance.

B1: VH14_1C.VL15 (antibody, human IgG4, V domains shown)
VH: QVQLVQSGAEVKKPGASVKVSCKASGYTFTSYVMHWVRQAPGQGLEWMGYINPYNDAPKYNEKFKGRVTITSDTSASTAYMELSSLRSDDTAVYYCARGLGYALYYAMDYWGQGTTVTVSS
VL: DIVMTQSPSTLSASVGDRVTITCKASQNVGNNVAWYQQKPGKAPKLLISSASNRDSGVPSRFSGSGSGTEFTLTISSLQPDDFATYFCQQYNIYPFTFGQGTKLEIK
notes: VH14_1 with M70I; Rest is human IgG4 (S241P, Kabat) and human kappa; also called 14_1C.15
As for B1, the “% residual binding after heat treatment (room temperature = 100%)” value with FLAG-tagged human APRIL [1] is 99.4%; with FLAG-tagged human APRIL [2] it was 43.8%; with FLAG-tagged human APRIL [3], 44.7%; in the assay with FLAG-tagged human APRIL [4], 59.1%; with FLAG-tagged human APRIL [6], 86.3%; with FLAG-tagged human APRIL [7], 59.1%. The 50% effective concentration (EC50) in the assay with FLAG-tagged human APRIL [5] is 7.04 nM. The same molecule gave an IC50 with FLAG-tagged human APRIL [8] of 5.26 nM.

B2: VH14.VL11 (combination of VH14 with VL11) (antibody, human IgG4, V domains shown)
VH: QVQLVQSGAEVKKPGASVKVSCKASGYTFTSYVMHWVRQAPGQGLEWMGYINPYNDAPKYNEKFKGRVTMTRDTSASTAYMELSSLRSDDTAVYYCARGLGYALYYAMDYWGQGTTVTVSS
VL: DIVMTQSQKFMPTSVGDRVSVTCKASQNVGNNVAWYQQKPGQSPKALIYSASNRDSGVPDRFTGSGSGTDFTLTITNVQSEDLAEYFCQQYNIYPFTFGAGTKLELK
notes: Human IgG4 (S241P) / human kappa; Member of the group 'combinations of VH11-VH14 with VL10-VL14'
Consider B2, for which the binding result in the assay with FLAG-tagged human APRIL [9] was “no binding”.

B3: VH11.VL11 (combination of VH11 with VL11) (antibody, human IgG4, V domains shown)
VH: QVQLVQSGAEVKKPGASVKVSCKASGYTFTSYVMHWVRQAPGQRLEWMGYINPYNDAPKYNEKFKGRVTITRDTSASTAYMELSSLRSEDTAVYYCARGLGYALYYAMDYWGQGTTVTVSS
VL: DIVMTQSQKFMPTSVGDRVSVTCKASQNVGNNVAWYQQKPGQSPKALIYSASNRDSGVPDRFTGSGSGTDFTLTITNVQSEDLAEYFCQQYNIYPFTFGAGTKLELK
notes: as for B2
As for B3, in the assay with FLAG-tagged human APRIL [9], the binding result is recorded as “no binding”.

B4: VH13.VL11 (combination of VH13 with VL11) (antibody, human IgG4, V domains shown)
VH: QVQLVQSGAEVKKPGASVKVSCKASGYTFTSYVMHWVRQAPGQGLEWMGYINPYNDAPKYNEKFKGRVTMTRDTSTSTVYMELSSLRSEDTAVYYCARGLGYALYYAMDYWGQGTMVTVSS
VL: DIVMTQSQKFMPTSVGDRVSVTCKASQNVGNNVAWYQQKPGQSPKALIYSASNRDSGVPDRFTGSGSGTDFTLTITNVQSEDLAEYFCQQYNIYPFTFGAGTKLELK
notes: as for B2
On to B4, for which the binding result in the assay with FLAG-tagged human APRIL [9] is “no binding”.

B5: VH13.VL14 (combination of VH13 with VL14) (antibody, human IgG4, V domains shown)
VH: QVQLVQSGAEVKKPGASVKVSCKASGYTFTSYVMHWVRQAPGQGLEWMGYINPYNDAPKYNEKFKGRVTMTRDTSTSTVYMELSSLRSEDTAVYYCARGLGYALYYAMDYWGQGTMVTVSS
VL: DILMTQSQKIMPTSVGDRVSVTCKASQNVGNNVAWYQQKPGQSPKALIYSASNRDSGVPDRFTGSGSGTDFTLTITNVQSEDLAEYFCQQYNIYPFTFGAGTKLDLK
notes: as for B2
As to B5, the binding result in the assay with FLAG-tagged human APRIL [9] was “no binding”.

B6: VH12.VL14 (combination of VH12 with VL14) (antibody, human IgG4, V domains shown)
VH: QVQLVQSGAEVKKPGASVKVSCKASGYTFTSYVMHWVRQAPGQGLEWMGYINPYNDAPKYNEKFKGRVTMTRDTSISTAYMELSRLRSDDTAVYYCARGLGYALYYAMDYWGQGTTVTVSS
VL: DILMTQSQKIMPTSVGDRVSVTCKASQNVGNNVAWYQQKPGQSPKALIYSASNRDSGVPDRFTGSGSGTDFTLTITNVQSEDLAEYFCQQYNIYPFTFGAGTKLDLK
notes: as for B2
As for B6, the binding result with FLAG-tagged human APRIL [9] is given as “no binding”.

B7: VH12.VL11 (combination of VH12 with VL11) (antibody, human IgG4, V domains shown)
VH: QVQLVQSGAEVKKPGASVKVSCKASGYTFTSYVMHWVRQAPGQGLEWMGYINPYNDAPKYNEKFKGRVTMTRDTSISTAYMELSRLRSDDTAVYYCARGLGYALYYAMDYWGQGTTVTVSS
VL: DIVMTQSQKFMPTSVGDRVSVTCKASQNVGNNVAWYQQKPGQSPKALIYSASNRDSGVPDRFTGSGSGTDFTLTITNVQSEDLAEYFCQQYNIYPFTFGAGTKLELK
notes: as for B2
Regarding B7, the binding result with FLAG-tagged human APRIL [9] is given as “no binding”.

B8: VH11.VL14 (combination of VH11 with VL14) (antibody, human IgG4, V domains shown)
VH: QVQLVQSGAEVKKPGASVKVSCKASGYTFTSYVMHWVRQAPGQRLEWMGYINPYNDAPKYNEKFKGRVTITRDTSASTAYMELSSLRSEDTAVYYCARGLGYALYYAMDYWGQGTTVTVSS
VL: DILMTQSQKIMPTSVGDRVSVTCKASQNVGNNVAWYQQKPGQSPKALIYSASNRDSGVPDRFTGSGSGTDFTLTITNVQSEDLAEYFCQQYNIYPFTFGAGTKLDLK
notes: as for B2
Consider B8, for which the binding result in the assay with FLAG-tagged human APRIL [9] is “no binding”.

B9: VH14.VL14 (combination of VH14 with VL14) (antibody, human IgG4, V domains shown)
VH: QVQLVQSGAEVKKPGASVKVSCKASGYTFTSYVMHWVRQAPGQGLEWMGYINPYNDAPKYNEKFKGRVTMTRDTSASTAYMELSSLRSDDTAVYYCARGLGYALYYAMDYWGQGTTVTVSS
VL: DILMTQSQKIMPTSVGDRVSVTCKASQNVGNNVAWYQQKPGQSPKALIYSASNRDSGVPDRFTGSGSGTDFTLTITNVQSEDLAEYFCQQYNIYPFTFGAGTKLDLK
notes: as for B2
Regarding B9, the binding result with FLAG-tagged human APRIL [9] is “no binding”.

B10: VH14_1D.VL15 (antibody, human IgG4, V domains shown)
VH: QVQLVQSGAEVKKPGASVKVSCKASGYTFTSYVMHWVRQAPGQGLEWMGYINPYNDAPKYNEKFKGRVTMTSDKSASTAYMELSSLRSDDTAVYYCARGLGYALYYAMDYWGQGTTVTVSS
VL: DIVMTQSPSTLSASVGDRVTITCKASQNVGNNVAWYQQKPGKAPKLLISSASNRDSGVPSRFSGSGSGTEFTLTISSLQPDDFATYFCQQYNIYPFTFGQGTKLEIK
notes: VH14_1 with T74K; Rest is human IgG4 (S241P, Kabat) and human kappa; also called 14_1D.15
As for B10, the “% residual binding after heat treatment (room temperature = 100%)” value was 84.3% with FLAG-tagged human APRIL [1]; 32.7% with FLAG-tagged human APRIL [2]; 39.8% in the assay with FLAG-tagged human APRIL [3]; 49.4% with FLAG-tagged human APRIL [4]; 75.3% with FLAG-tagged human APRIL [6]; 45.6% with FLAG-tagged human APRIL [7]. For the same molecule, the concentration giving a half-maximal response (EC50) with FLAG-tagged human APRIL [5] came out at 1.95 nM. In the assay with FLAG-tagged human APRIL [8], this molecule yielded a 50% inhibitory concentration (IC50) of 0.96 nM.
